# According to the supplement of paper PMC7125110:
# ± gives the standard error. Fewer inactive variants are shown than the library holds.
# B1: glmS ribozyme (parent)
# chain: AUAAAAGCGCCAGAACUACAGAAAUGUAGUUGACGAGGAGGAGGUUUAUCGAAUUUUCGGCGGAUGCCUCCAAA
# Tests used:
# Conditions in all cases: with glucosamine-6-phosphate
# [1] = variants of: B1; test: self-cleavage kobs at 40 uM GlcN6P; higher = faster cleavage; RNA array
# How it was run: (§1)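 E. coli RNA polymerase transcribed barcoded ribozyme variants in situ on sequenced MiSeq chips, which were tracked via a hybridised Cy3 probe at 37 °C. Tiles were imaged over ~14 h after glucosamine-6-phosphate (40 μM to 10 mM) in HEPES/KCl/Mg(OAc)2 buffer was flowed in. Normalised per-tile medians were fit to one- or two-exponential decays for kobs, and kcat and KM came from weighted Michaelis–Menten fits.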
# [2] = variants of: B1; test: self-cleavage kobs at 160 uM GlcN6P; higher = faster cleavage; RNA array
# How it was run: as §1
# [3] = variants of: B1; test: self-cleavage kobs at 640 uM GlcN6P; higher = faster cleavage; RNA array
# How it was run: as §1
# [4] = variants of: B1; test: self-cleavage kobs at 2500 uM GlcN6P; higher = faster cleavage; RNA array
# How it was run: as §1
# [5] = variants of: B1; test: self-cleavage kobs at 10000 uM GlcN6P; higher = faster cleavage; RNA array
# How it was run: as §1
Variant,self-cleavage kobs at 40 uM GlcN6P [1] [s⁻¹],self-cleavage kobs at 160 uM GlcN6P [2] [s⁻¹],self-cleavage kobs at 640 uM GlcN6P [3] [s⁻¹],self-cleavage kobs at 2500 uM GlcN6P [4] [s⁻¹],self-cleavage kobs at 10000 uM GlcN6P [5] [s⁻¹]
C50G C58A,5.49e-05 ± 1.6e-05,0.000151 ± 4.4e-05,0.000175 ± 4.4e-05,0.000194 ± 3.7e-05,3.98e-05 ± 1.7e-05
G43A U47G,< 1e-05,–,< 1e-05,–,–
A12U G13C A15C C34G,< 1e-05,–,< 1e-05,< 1e-05,< 1e-05
C16G G29U C71U,0.000193 ± 4.3e-05,–,0.00358 ± 0.00079,0.00344 ± 0.0014,0.013 ± 0.0037
A15G G21U A33G,< 1e-05,–,–,–,< 1e-05
G40A C68A,< 1e-05,< 1e-05,< 1e-05,< 1e-05,< 1e-05
G40A U54G,0.00036 ± 6.8e-05,–,0.0015 ± 0.00038,0.00184 ± 0.00065,0.00643 ± 0.0015
C16U C50A A52C U65C G66U,< 1e-05,–,< 1e-05,–,–
G44A C50G U55A,< 1e-05,–,< 1e-05,< 1e-05,–
G21A C70A,3.65e-05 ± 1.8e-05,–,–,7.55e-05 ± 1.5e-05,0.000262 ± 6.9e-05
G29A C34U,< 1e-05,–,–,–,–
G32C A39C G44A A48G U65C C68A C71A,< 1e-05,–,–,–,< 1e-05
C34A C70G,< 1e-05,–,–,< 1e-05,–
U31C C34U G60U,< 1e-05,–,–,–,< 1e-05
A39U A42G U65A,4.73e-05 ± 1.7e-05,–,–,–,0.00165 ± 0.00027
G7C A39G,< 1e-05,< 1e-05,< 1e-05,< 1e-05,< 1e-05
A48U G66C,< 1e-05,< 1e-05,–,–,–
G38C U45C U55C,< 1e-05,–,–,< 1e-05,–
U56C C58U G60U,< 1e-05,< 1e-05,–,< 1e-05,–
G38A A39G U45G C50G,< 1e-05,–,–,< 1e-05,–
G32C C67A,< 1e-05,–,–,–,2.83e-05 ± 9.7e-06
G7U A48G A64U,< 1e-05,–,–,–,< 1e-05
C10U A12U G51U U56A,< 1e-05,–,–,–,< 1e-05
A36C C58G U69G,7.56e-05 ± 2.1e-05,–,–,–,5.12e-05 ± 1.9e-05

Variant,self-cleavage kobs at 40 uM GlcN6P [1] [s⁻¹],self-cleavage kobs at 160 uM GlcN6P [2] [s⁻¹],self-cleavage kobs at 640 uM GlcN6P [3] [s⁻¹],self-cleavage kobs at 2500 uM GlcN6P [4] [s⁻¹],self-cleavage kobs at 10000 uM GlcN6P [5] [s⁻¹]
A53U G60C,< 1e-05,–,–,< 1e-05,< 1e-05
C16A G62C,< 1e-05,< 1e-05,< 1e-05,< 1e-05,< 1e-05
A42G C50A A64G C70G,< 1e-05,–,–,–,–
G41U G43U U57G G62A C68A,< 1e-05,< 1e-05,< 1e-05,< 1e-05,< 1e-05
G43C U46G U69C,< 1e-05,–,–,–,–
G40U U56A G62U C67G,< 1e-05,< 1e-05,< 1e-05,< 1e-05,–
G7A G41U A42G A52G,< 1e-05,–,–,–,< 1e-05
A14G C67U,0.000746 ± 0.00014,0.00183 ± 0.00033,0.00612 ± 0.00075,0.0171 ± 0.0057,–
G13U U31C A64U,< 1e-05,–,–,–,–
A12C G38A G60A,< 1e-05,< 1e-05,–,–,< 1e-05
C11A C16G A36U G40A U55A U56A,< 1e-05,–,–,–,< 1e-05
G59C A64U,< 1e-05,< 1e-05,< 1e-05,–,< 1e-05
G35A A42G A52G C70U,< 1e-05,< 1e-05,–,< 1e-05,–
U30A U69G,< 1e-05,–,–,–,–
G29A G38A A39U,< 1e-05,–,< 1e-05,–,< 1e-05
A36U C50U A52G C70G,0.000113 ± 3.1e-05,–,0.000329 ± 7.9e-05,0.000173 ± 8.2e-05,–
G37U A52U U56C,< 1e-05,–,< 1e-05,< 1e-05,–
A36U G37U G40A A52C C58U,< 1e-05,–,–,–,–
C11G G37C U55A C68G,< 1e-05,–,0.000386 ± 0.00018,–,–
C34G G44A G60C,< 1e-05,–,–,< 1e-05,< 1e-05
G38A U56C,< 1e-05,< 1e-05,< 1e-05,–,< 1e-05
G32A U47A,0.000103 ± 2.6e-05,8.74e-05 ± 1.8e-05,–,0.000897 ± 0.00019,0.00237 ± 0.00046
A14G U31G G40A C71A,5.41e-05 ± 1.8e-05,–,–,–,0.000822 ± 0.00016
G43U U47G,< 1e-05,< 1e-05,–,–,–

Variant,self-cleavage kobs at 40 uM GlcN6P [1] [s⁻¹],self-cleavage kobs at 160 uM GlcN6P [2] [s⁻¹],self-cleavage kobs at 640 uM GlcN6P [3] [s⁻¹],self-cleavage kobs at 2500 uM GlcN6P [4] [s⁻¹],self-cleavage kobs at 10000 uM GlcN6P [5] [s⁻¹]
G7U U30G C61G G62U,< 1e-05,–,–,–,–
G41U G51U A53G,< 1e-05,–,–,–,< 1e-05
A14G G38U C50U,< 1e-05,–,–,–,–
G43C U65A,< 1e-05,–,< 1e-05,< 1e-05,–
G43C G51U,< 1e-05,–,–,–,< 1e-05
C34A U56C A64C,< 1e-05,–,–,–,–
G59C G66U,< 1e-05,< 1e-05,< 1e-05,–,< 1e-05
A15C G43U U54C,< 1e-05,–,–,–,< 1e-05
U54G G63C,< 1e-05,–,< 1e-05,< 1e-05,< 1e-05
C10G G63A,< 1e-05,–,–,–,< 1e-05
A33C G51C G63C A64U,< 1e-05,< 1e-05,< 1e-05,–,< 1e-05
G9A A64C,< 1e-05,< 1e-05,< 1e-05,< 1e-05,–
A6C A36G,< 1e-05,< 1e-05,< 1e-05,< 1e-05,< 1e-05
A33C G63U G66U,< 1e-05,–,< 1e-05,–,< 1e-05
A33U G41A U46C,< 1e-05,–,–,–,< 1e-05
G13C A64C,< 1e-05,< 1e-05,–,< 1e-05,< 1e-05
A6C A48C,< 1e-05,< 1e-05,< 1e-05,< 1e-05,< 1e-05
C50G A53U G66A C67A,0.000122 ± 4.6e-05,–,–,–,0.000135 ± 5.1e-05
A14U G63U,< 1e-05,< 1e-05,< 1e-05,< 1e-05,–
A14U G63A,< 1e-05,–,< 1e-05,–,–
A6U A15C G32A G63C A64U,< 1e-05,–,–,–,–
C8A U30A,< 1e-05,< 1e-05,–,< 1e-05,< 1e-05
U49G C61A G62U,< 1e-05,–,< 1e-05,< 1e-05,< 1e-05
G29A A48G U49G G62C,< 1e-05,< 1e-05,–,< 1e-05,–

Variant,self-cleavage kobs at 40 uM GlcN6P [1] [s⁻¹],self-cleavage kobs at 160 uM GlcN6P [2] [s⁻¹],self-cleavage kobs at 640 uM GlcN6P [3] [s⁻¹],self-cleavage kobs at 2500 uM GlcN6P [4] [s⁻¹],self-cleavage kobs at 10000 uM GlcN6P [5] [s⁻¹]
A6U A33U G38U,< 1e-05,< 1e-05,< 1e-05,–,–
A12U U30G U47G A48U U49C U69C C70G,< 1e-05,–,–,–,< 1e-05
G43A G44U,< 1e-05,< 1e-05,< 1e-05,–,< 1e-05
G29U G41A C58U,< 1e-05,–,–,–,< 1e-05
C8G C58A,< 1e-05,< 1e-05,< 1e-05,< 1e-05,< 1e-05
A33G G41C U47C,< 1e-05,–,< 1e-05,< 1e-05,–
G60U G63A,< 1e-05,< 1e-05,–,–,–
G7A C16A U31C G32U G41C,< 1e-05,–,–,–,–
C8A C34U G35U G43A U45G U54C,< 1e-05,–,–,–,< 1e-05
G9A G32A,< 1e-05,–,< 1e-05,< 1e-05,< 1e-05
G7U G43U C50U G51C,< 1e-05,–,–,–,< 1e-05
G21U A39G,0.00105 ± 0.00032,–,–,–,–
A12G A36U A42U G51U A53C,< 1e-05,–,–,–,–
G29C G44U,< 1e-05,< 1e-05,< 1e-05,–,–
G13C A52U,< 1e-05,< 1e-05,< 1e-05,–,< 1e-05
A12C A36C A48G C61U C70A,< 1e-05,–,–,–,–
A6C C10U C67A,< 1e-05,–,–,–,–
A6C G40U A42C U45A G59C C61G A64U,< 1e-05,–,–,< 1e-05,–
G7A U57G C61A,< 1e-05,–,–,–,–
G13U G62A,< 1e-05,–,–,< 1e-05,< 1e-05
A14G C16A U54G,0.000211 ± 4.8e-05,–,–,–,0.00361 ± 0.00067
A14U C50U G59C C70U,< 1e-05,–,–,–,–
G7U C11A C61G,< 1e-05,–,–,–,–
C34A G44U,< 1e-05,< 1e-05,< 1e-05,< 1e-05,< 1e-05
